Data as given in publication PMC7005744, “Cis- and trans-regulations of pre-mRNA splicing by RNA editing enzymes influence cancer development”.

Assays:
ADAR2 = ADAR2 (UniProt P78563 1-741); test: EMSA; dose-dependent shift; REMSA/UV: 0.5 pmol 32P probe, 1x REMSA binding buffer (Thermo), 0.1 ug/ul yeast tRNA, room temperature 30 min, 6% native PAGE; pull-down: 250 mM NaCl, 10 mM MgCl2, 50 mM Hepes pH 7.4, 0.5% Igepal CA-630, tRNA, 4 C or RT 30 min; conditions: protein: recombinant; tags: FLAG; chain copies: 2; label: 5' 32P; hairpin
ADAR1 = molecular target: T1, ADAR1 (UniProt P55265 296-1226); test: as above; conditions: protein: recombinant; tags: FLAG; chain copies: 2; label: 5' 32P; hairpin
T1 sequence: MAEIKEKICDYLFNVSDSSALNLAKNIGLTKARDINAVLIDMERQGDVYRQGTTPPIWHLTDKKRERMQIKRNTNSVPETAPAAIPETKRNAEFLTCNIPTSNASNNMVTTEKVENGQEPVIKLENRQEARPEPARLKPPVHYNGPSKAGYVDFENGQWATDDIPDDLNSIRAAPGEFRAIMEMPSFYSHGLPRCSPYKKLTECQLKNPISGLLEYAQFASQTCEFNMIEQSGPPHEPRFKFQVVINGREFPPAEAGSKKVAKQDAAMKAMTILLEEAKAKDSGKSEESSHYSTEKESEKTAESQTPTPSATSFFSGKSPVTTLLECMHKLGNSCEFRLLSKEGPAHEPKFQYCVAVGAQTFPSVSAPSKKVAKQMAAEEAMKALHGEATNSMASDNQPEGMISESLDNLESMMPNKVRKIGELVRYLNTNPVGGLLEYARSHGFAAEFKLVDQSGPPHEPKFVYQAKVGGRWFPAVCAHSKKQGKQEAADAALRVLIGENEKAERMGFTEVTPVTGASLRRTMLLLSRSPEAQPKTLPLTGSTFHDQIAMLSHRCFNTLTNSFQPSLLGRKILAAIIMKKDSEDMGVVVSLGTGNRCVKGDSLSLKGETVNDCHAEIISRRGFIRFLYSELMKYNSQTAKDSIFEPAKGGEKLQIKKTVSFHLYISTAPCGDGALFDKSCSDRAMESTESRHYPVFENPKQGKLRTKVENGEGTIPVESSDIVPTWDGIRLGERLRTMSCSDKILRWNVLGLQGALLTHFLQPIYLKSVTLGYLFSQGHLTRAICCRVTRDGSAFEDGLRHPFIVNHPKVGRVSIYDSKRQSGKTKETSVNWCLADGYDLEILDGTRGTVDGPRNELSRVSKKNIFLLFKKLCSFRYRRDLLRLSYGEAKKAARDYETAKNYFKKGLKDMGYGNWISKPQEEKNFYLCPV

GGUAGAAAAGAAAAAUGACACUCGAGUGUUUUUUUCUCUUCUACUU (structured_RNA) [CCDC15 In8-9 WT]
binding result (ADAR2): binds | binding result (ADAR1): binds
